Laboratory results published in article PMC13539869, “Dpb11 facilitates the colocalization of Mec1-Ddc2 with its activators on gapped DNA” (Cell reports, 2026).

Assays:
[1] = test system: Dpb11;RPA (Saccharomyces cerevisiae;Saccharomyces cerevisiae); assay: single-molecule fluorescence (C-Trap kymographs); details: 5' dual-biotin at both ends; Imaging: 25 mM Tris-HCl pH 7.5, 100 mM NaCl, 10 mM Mg acetate, 2 mM TCEP, 0.1 mM EDTA, 0.04 mg/mL BSA, 1% glycerol, oxygen scavengers; room temperature, no …
[2] = test system: Dpb11;Mec1;Ddc2;RPA (Saccharomyces cerevisiae;Saccharomyces cerevisiae;Saccharomyces cerevisiae;Saccharomyces cerevisiae); assay: single-molecule fluorescence (C-Trap kymographs); details: 5' dual-biotin at both ends; Imaging: 25 mM Tris-HCl pH 7.5, 100 mM NaCl, 10 mM Mg acetate, 2 mM TCEP, 0.1 mM EDTA, 0.04 mg/mL BSA, 1% glycerol, oxygen scavengers; room temperature, no …; scale: % of Mec1-Ddc2 binding events at gap junctions
[3] = biological target: T1, Sc Dpb11 recombinant protein (unlabeled) (S. cerevisiae), P47027; assay: mass photometry; 50 nM Dpb11, label-free, MP Buffer (25 mM Tris-HCl pH 7.5, 250 mM NaCl, 10 mM Mg(CH3COO)2, 2 mM TCEP, 0.1 mM EDTA, 4% glycerol); monomer and dimer; details: remark: other sources report otherwise
T1 chain: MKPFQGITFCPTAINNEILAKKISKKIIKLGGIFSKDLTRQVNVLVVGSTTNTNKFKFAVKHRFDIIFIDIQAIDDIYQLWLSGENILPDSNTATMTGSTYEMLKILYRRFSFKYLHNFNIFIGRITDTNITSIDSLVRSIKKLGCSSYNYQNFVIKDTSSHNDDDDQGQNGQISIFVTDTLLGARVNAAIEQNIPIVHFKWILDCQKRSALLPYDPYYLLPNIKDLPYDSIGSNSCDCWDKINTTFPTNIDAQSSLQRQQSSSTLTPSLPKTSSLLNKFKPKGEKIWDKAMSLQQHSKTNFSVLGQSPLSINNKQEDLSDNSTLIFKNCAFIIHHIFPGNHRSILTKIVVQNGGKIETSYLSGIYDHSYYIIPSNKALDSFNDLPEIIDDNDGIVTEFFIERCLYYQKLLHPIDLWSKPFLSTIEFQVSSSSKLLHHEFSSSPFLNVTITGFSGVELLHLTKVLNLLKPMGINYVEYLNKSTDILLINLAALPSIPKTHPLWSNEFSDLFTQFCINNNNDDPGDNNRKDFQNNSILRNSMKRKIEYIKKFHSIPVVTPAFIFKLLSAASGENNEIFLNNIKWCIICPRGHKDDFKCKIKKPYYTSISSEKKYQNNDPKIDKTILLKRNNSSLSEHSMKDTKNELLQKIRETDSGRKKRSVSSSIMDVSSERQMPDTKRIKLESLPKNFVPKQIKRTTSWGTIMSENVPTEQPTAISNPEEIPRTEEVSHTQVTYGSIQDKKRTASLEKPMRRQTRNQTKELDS

[4] = biological target: T1, Sc Dpb11 recombinant protein …; assay: mass photometry; 150 nM Dpb11, label-free, MP Buffer (25 mM Tris-HCl pH 7.5, 250 mM NaCl, 10 mM Mg(CH3COO)2, 2 mM TCEP, 0.1 mM EDTA, 4% glycerol); monomer and dimer; details: remark: other sources report otherwise
[5] = biological target: T2, Mec1-Ddc2^LD555 (Mec1(b)-Ddc2 labeled with LD555) (S. cerevisiae, UniProt P38111 1-2368; Q04377 1-747, fluorophore LD555 (NHS ester) at the N-terminal amine of Mec1-Ddc2; which chain is not told | fluorophore LD555 (NHS ester) at the N-terminal amine of Mec1-Ddc2; which chain is not told); assay: single-molecule fluorescence imaging (C-Trap, optical tweezers with confocal microscopy); 30 nM fluorescent Mec1-Ddc2, 200 nM unlabeled Dpb11 and 100 nM unlabeled RPA on 3 kb-gapped DNA; distribution of initial binding positions of Mec1-Ddc2; SM Buffer, room temperature, no flow; details: both partners purified
T2 construct: Mec1, S. cerevisiae; gene synthesized by Biomatik; Ddc2, S. cerevisiae; gene by PCR from genomic DNA of strain S288C; also called fluorescent Mec1-Ddc2; Sc Mec1(b)-Ddc2 recombinant protein; copies: 2 + 2

[6] = biological target: T3, Mec1-Ddc2^AF647 (Mec1(a)-Ddc2 labeled with Alexa Fluor 647) (S. cerevisiae, UniProt P38111 1-2368; Q04377 1-747, fluorophore AF647 (NHS ester) at the N-terminal amine of Mec1-Ddc2; which chain is not told | fluorophore AF647 (NHS ester) at the N-terminal amine of Mec1-Ddc2; which chain is not told); assay: as above; details: both partners purified
T3 construct: Mec1, S. cerevisiae; gene synthesized by Biomatik; Ddc2, S. cerevisiae; gene by PCR from genomic DNA of strain S288C; Only the Mec1(b) plasmid was deposited (Addgene 240737); Mec1(a) differs in the C-terminal tag region; also called Sc Mec1(a)-Ddc2 recombinant protein; copies: 2 + 2

[7] = biological target: T2, Mec1-Ddc2^LD555 (Mec1(b)-Ddc2 labeled …); assay: single-molecule fluorescence imaging, dual-color colocalization (C-Trap); 10 nM Mec1-Ddc2^LD555, 20 nM Dpb11^LD655, 180 nM unlabeled Dpb11 and 100 nM unlabeled RPA on 3 kb-gapped DNA; SM Buffer, room temperature, no flow; details: both partners purified

Molecule: 3 kb-gapped 19 kb DNA
- binding signal (% of binding events at gap junctions) [1]: 53
- binding signal [2]: 50

B1: Sc Dpb11 recombinant protein (unlabeled), P47027 1-764 (natural protein)
chain: MKPFQGITFCPTAINNEILAKKISKKIIKLGGIFSKDLTRQVNVLVVGSTTNTNKFKFAVKHRFDIIFIDIQAIDDIYQLWLSGENILPDSNTATMTGSTYEMLKILYRRFSFKYLHNFNIFIGRITDTNITSIDSLVRSIKKLGCSSYNYQNFVIKDTSSHNDDDDQGQNGQISIFVTDTLLGARVNAAIEQNIPIVHFKWILDCQKRSALLPYDPYYLLPNIKDLPYDSIGSNSCDCWDKINTTFPTNIDAQSSLQRQQSSSTLTPSLPKTSSLLNKFKPKGEKIWDKAMSLQQHSKTNFSVLGQSPLSINNKQEDLSDNSTLIFKNCAFIIHHIFPGNHRSILTKIVVQNGGKIETSYLSGIYDHSYYIIPSNKALDSFNDLPEIIDDNDGIVTEFFIERCLYYQKLLHPIDLWSKPFLSTIEFQVSSSSKLLHHEFSSSPFLNVTITGFSGVELLHLTKVLNLLKPMGINYVEYLNKSTDILLINLAALPSIPKTHPLWSNEFSDLFTQFCINNNNDDPGDNNRKDFQNNSILRNSMKRKIEYIKKFHSIPVVTPAFIFKLLSAASGENNEIFLNNIKWCIICPRGHKDDFKCKIKKPYYTSISSEKKYQNNDPKIDKTILLKRNNSSLSEHSMKDTKNELLQKIRETDSGRKKRSVSSSIMDVSSERQMPDTKRIKLESLPKNFVPKQIKRTTSWGTIMSENVPTEQPTAISNPEEIPRTEEVSHTQVTYGSIQDKKRTASLEKPMRRQTRNQTKELDS
- percent of particles as dimer [3]: 64%
- percent of particles as monomer [3]: 35%
- stoichiometry N [3]: 2
- percent of particles as dimer [4]: 98%
- stoichiometry N [4]: 2

B2: Sc Dpb11 recombinant protein (unlabeled) (natural protein, S. cerevisiae, UniProt P47027 1-764, looked up)
chain: MKPFQGITFCPTAINNEILAKKISKKIIKLGGIFSKDLTRQVNVLVVGSTTNTNKFKFAVKHRFDIIFIDIQAIDDIYQLWLSGENILPDSNTATMTGSTYEMLKILYRRFSFKYLHNFNIFIGRITDTNITSIDSLVRSIKKLGCSSYNYQNFVIKDTSSHNDDDDQGQNGQISIFVTDTLLGARVNAAIEQNIPIVHFKWILDCQKRSALLPYDPYYLLPNIKDLPYDSIGSNSCDCWDKINTTFPTNIDAQSSLQRQQSSSTLTPSLPKTSSLLNKFKPKGEKIWDKAMSLQQHSKTNFSVLGQSPLSINNKQEDLSDNSTLIFKNCAFIIHHIFPGNHRSILTKIVVQNGGKIETSYLSGIYDHSYYIIPSNKALDSFNDLPEIIDDNDGIVTEFFIERCLYYQKLLHPIDLWSKPFLSTIEFQVSSSSKLLHHEFSSSPFLNVTITGFSGVELLHLTKVLNLLKPMGINYVEYLNKSTDILLINLAALPSIPKTHPLWSNEFSDLFTQFCINNNNDDPGDNNRKDFQNNSILRNSMKRKIEYIKKFHSIPVVTPAFIFKLLSAASGENNEIFLNNIKWCIICPRGHKDDFKCKIKKPYYTSISSEKKYQNNDPKIDKTILLKRNNSSLSEHSMKDTKNELLQKIRETDSGRKKRSVSSSIMDVSSERQMPDTKRIKLESLPKNFVPKQIKRTTSWGTIMSENVPTEQPTAISNPEEIPRTEEVSHTQVTYGSIQDKKRTASLEKPMRRQTRNQTKELDS
notes: Dpb11, S. cerevisiae strain S288C gene; Eluted from the beads with 3xFLAG peptide; no removal of the tag is described; By mass photometry a mixture of monomer and dimer; also called unlabeled Dpb11
- binding result [5]: binds
- binding result [6]: binds

B3: Dpb11^LD655 (natural protein, S. cerevisiae, UniProt P47027 1-764, looked up)
chain: MKPFQGITFCPTAINNEILAKKISKKIIKLGGIFSKDLTRQVNVLVVGSTTNTNKFKFAVKHRFDIIFIDIQAIDDIYQLWLSGENILPDSNTATMTGSTYEMLKILYRRFSFKYLHNFNIFIGRITDTNITSIDSLVRSIKKLGCSSYNYQNFVIKDTSSHNDDDDQGQNGQISIFVTDTLLGARVNAAIEQNIPIVHFKWILDCQKRSALLPYDPYYLLPNIKDLPYDSIGSNSCDCWDKINTTFPTNIDAQSSLQRQQSSSTLTPSLPKTSSLLNKFKPKGEKIWDKAMSLQQHSKTNFSVLGQSPLSINNKQEDLSDNSTLIFKNCAFIIHHIFPGNHRSILTKIVVQNGGKIETSYLSGIYDHSYYIIPSNKALDSFNDLPEIIDDNDGIVTEFFIERCLYYQKLLHPIDLWSKPFLSTIEFQVSSSSKLLHHEFSSSPFLNVTITGFSGVELLHLTKVLNLLKPMGINYVEYLNKSTDILLINLAALPSIPKTHPLWSNEFSDLFTQFCINNNNDDPGDNNRKDFQNNSILRNSMKRKIEYIKKFHSIPVVTPAFIFKLLSAASGENNEIFLNNIKWCIICPRGHKDDFKCKIKKPYYTSISSEKKYQNNDPKIDKTILLKRNNSSLSEHSMKDTKNELLQKIRETDSGRKKRSVSSSIMDVSSERQMPDTKRIKLESLPKNFVPKQIKRTTSWGTIMSENVPTEQPTAISNPEEIPRTEEVSHTQVTYGSIQDKKRTASLEKPMRRQTRNQTKELDS
modifications: fluorophore LD655 (NHS ester) at the N-terminal amine
notes: Dpb11, S. cerevisiae strain S288C gene; Same protein as m1, labeled; In the dual-color experiment 20 nM of it stood with 180 nM unlabeled Dpb11; also called fluorescent Dpb11; Dpb11 labeled with LD655; source: S. cerevisiae strain OY001, GAL1/10 overexpression, purified (FLAG-Ab beads), then labeled with LD655 NHS
- binding result [7]: binds
